Assay results published in the nanobody polyreactivity screen of Harvey et al. (2022).

Test: yeast display, Sf9 membrane polyspecificity reagent, FACS + sequencing; frameworks hold sequencing errors
Procedure, shortened: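 In a synthetic yeast display library (Saccharomyces cerevisiae BJ5465), nanobody expression was induced with galactose for 36–48 hours. FACS gates were set low and high (top ~1%) using anti-HA fluorescence for expression and streptavidin fluorescence for binding of the Sf9 membrane reagent. Each polyreactivity label is drawn from the gate of origin.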

| Sequence | polyreactivity (PSR sort gate) |
| --- | --- |
| QVQLVESGGGLVQAGGSLRLSCAASGRIFSRYAMGWYTQAPGKERELVAAITQSGTSTYDADSVKGRFTISRDNAKNTVYLQMNSLKPEDTAVYFCNAYRQYRYDYWGQGTQVTVSS | low polyreactivity |
| QVQLVESGGGLVQAGGSLRLSCAASGMGWYRQAPGKERELVATITTGGTYADSVKGRFTISRDNAKNTVYLQMNSLKPEDTAVYYCAADGLGSVYYLRYNYWGQGTQVTVSS | low polyreactivity |
| QVQLVESGGGLVQARGSLRLSCAASGRTFVVYDMGWYRPAPGKERALVAAITWSGGSTYYADSVKGRFTSSRDTAKNTVYLQMHSLKPEDTAVYYCAAGYYYFWTYAYWGQGTQVTVSS | low polyreactivity |
| QVQLVESGGGLVQAGGSLRLSCAASGSTFPEYAMGWYRQAPGKERELVATISWSGGSTDYADSVKGRITISRDNAKNTVYLQMNSLKPEDTAVYYCNKELIPHFDTRESWGQGTQVSVSS | low polyreactivity |
| QVHHVESGGGLVQAGGSLRLSCAASGSTFYGYALGWYRQAPGKERELVAAITGSGDTTYYADSVKGRFTISRDNAKYTVYLQMNSLKPEDTAVYYCNRDYRSDLGYADQSWTDQYDHWGQGTQVTVSS | low polyreactivity |
| QVQLVESGGGLVQAGGSLRLSCAASGINNSVNDMGLYRQAPGKERELVAAISSGDSTNYADSVKGRFTISRDNAKNTVYLQMNSLKPEDTAGYYCAALEGCLTGWQTYDYWGQGTQVTVSS | low polyreactivity |
| QVQRVESGGGIVQAGGTLRLSCAASLRIKDNVMGRYIQAHGKERELVAAITRSAGRTYYADSVKGRFTISRDNAKYTVYLQKNSLKPEDTALYYCAAHAERYGYEYWGQGTQVTVSS | low polyreactivity |
| QVQLVESGGGLVQAGGSLRLSCAASGRTFWYYAMGWYRQAPGKERELVADITRRGGGTYYADSVKGRFTISRDNAKNTVYLQMNSLKPEDTAVYYCAVERWPRSYPPSYDYWGQGTQVTVSS | high polyreactivity |
| QVQLVESGGGLVQAGGSLRLSCAASGFTFGGYAMGWYRQAPGKERELVAAISRSGGSTSYADSVKGRFTISRDNAKNTVYLQMNSLKPEDTAVYYCATLWTTKYWGQGTQVTVSS | high polyreactivity |
| QVQLVESGGGLVQAGGSLRLICAASGFTFSINTRGWYRQAPGKEREFVAGISRSGGSTYYADSVKGRFTISRDNAKNTVYLQMNSLKPEDTAVYYCNADRYSWYTPLGYDYWGQGTQVNVSS | high polyreactivity |
| QVQLVESGGGLVQAGGSLRLSCAASGSIFDVNAMGWYRQATGKERELVAAISDSGGSTYYADSVKGRFTISRDNAKNTVYLQMNSLKPEDTAVYYSNADWSWYNYYDFDYWGHGTQVTVSS | low polyreactivity |
| QVQLVESGGGLVQAGGSLRLSCAASGRIFKSYAMGWYRQAPGKERELVAGITSGGGTYYADSLKGRFTISRDNAKTTVYLQMNSLKPEDTPVYYCATRTYRESTYDYWGQGTQVTVSS | high polyreactivity |
| QVHLVESGGGLVQAGGSLRLSCAASGGIFSYYALGWYRQAPGKERELVAAISSGGTTYYADSVKGRFTISRDNAKNTVYLQMNSLKPEDTAVYYCALLVGHNYWGQGTQVTVSS | low polyreactivity |
| QVQLQESGGGLVQAGGSLRLSCAASGYISSWYPMGSYRQAPGKEREFVATIAPGATTYYADSVKGRFTISRDYAKNTVYLQMNSLKPEDTAVYYCAAGPENNDFYSYGGQGTQVTVSS | low polyreactivity |
| QVQLVESGGGLVQAGGSLRLSCAASGLTFWAYAMGWYRQAPGKEREFVAAISWSGDSTYYADSVKGRFTISRDNAKNTVYLQMNSLKPEDTAVYYCAAEWYYVYIAPYDYWGQGTQVTVSS | low polyreactivity |
| QVKLVESGGGLVQAGGSLRLSCAASGITFYINAMGWYRQAPGKERELVAVIDSRGSSTFYADSVKGRFTISRDNAKNTVYLQMNSLKPEDTAVYYCAVEGYPGRYRDPGDLYYYWGQGTQVTLSS | low polyreactivity |
| QVQLVESGGGLVQAGGSLRLSCAASGRTFTYNAMGWYRQAPGKERELVAAISRSGGRTYYADSVKGRFTISRDNAKNTVYLQMNSLKPEDTAVYYCNTDGYYTTAKYGYWGQGTQVTVSS | high polyreactivity |
| QVQLVESGGGLVQAGGSLRLSCAASGFIFYRYTMGCYRQAPGKERELVAGISSRGTRTYYADSVKGRFTISRDNAKNTVYLQMNSLKPEDTAVYYCAKVDGSKRYNYWGQGTQVTVSS | high polyreactivity |
| QVQLVESAGGLVQAGGSLSLSCAASGSMFNKYAMGWYRQAPGKERELVAAISVSGTRTYYADSVKGRFTISRDNAKNTVYLQMNSLKPEDTAVYYCATKFFRTAYEYWGQGTQVTVSS | high polyreactivity |
| KVQLVESGAGLVQAGGSLRLSCAASVSNFTSHAMGWSRQAPGKEREFVAAISVGGGITYYADSVKGRFTISRDHEKNTVYLQMNSLNPEDTAVYYCDADGEYPHSDDFEYWGQVTQVTVSS | low polyreactivity |
| QFQLVDSGGGLVHAGGSRSLSCADSGLIFHNNAMGWYRQAPGKEREFVARITRSGGTTYYADSVKGRFTISRDNAKNTVYLQMNSLKPEDTAVYYCAAEQSVSFLVFTGFKFDYWGQGTHVTVSS | low polyreactivity |
| QVQLVESGGGLVQAGGSLRLSCDASGFTFDDYAMGWYRQAHGNEMELVAAISSSRDSTYNADSVKGRFTISRDYEKNTVYLQINSLKPQDTAVYYCAAEYDREEYSGYDYWGEGTQVTVSS | low polyreactivity |

| Sequence | polyreactivity (PSR sort gate) |
| --- | --- |
| QVQLVESGGGLVQAGGSLRLSCAASGFTFYQYAMGWYRQAPGKERELVAAISSSGTSTYYADSVKGRFTISRDNAKNTVYLQMNSLKPEDTAVYYCAARRYKLFYWGQGTQVTVSS | low polyreactivity |
| QVQLVESGGGLVQAGGSLRLSCAASGRIFPQNAMGWYRQAPGKERELVAVITGNGSTYYADSVKGRFTISRDNAKNTVYLQMNSLKPEDTAVYYCAARVSWPYHRGARDYWGQGTQVTVSS | low polyreactivity |
| QVQLVESGGGLVQAGGSLRLSCAASGRTFFINTMGWYRQAPGKEREFVAAITWSAGRTYYADSVKGRFTISRDNAKNTVYLQMNSLKPEDTAVYYCAAALHGHTFPFYYWGQGTQVTVSS | low polyreactivity |
| QVQLVESGGGLVQAGGSLRLSCAASGSTFTHYALGWYRQAPGKEMELVAAITRRGGSTYYADSVKGRFTISRDYAKNTVYLQMNRLKPEDTAVYYCAARSRYDQEYDYWGQATQVTVSS | high polyreactivity |
| QVQLVESGGGLVQAGGSLRLICAASGFIFESNAMGWYRQAPGKERELVAAITSAGRTYYADSVKGRFTISRDNAKNTVYLQMNSLKPEDNAVYYCNATRSRYRYDYWGQGTQVTVSS | high polyreactivity |
| QVQLVESGGGLDQAGGSLRLSCAASGSTFWGYTMGWYRQAPGKERELVAAITSGGSTNYADSVKGRFTISRDNAKNTVYLQMYSLKPEDTAVYYCNAVYPGRRRYRKWYIYDYWGQGTQVTVSS | high polyreactivity |
| QVQLVESGGVLVQAGGSLRLSCAASGSTFGWYAMGWYRQAPGKERELVAAITSVGSTYYADYVKGRFTISRDNAKNTVYLQMNSLKPEDTAVYYCAAGWTYAYTLSLYEYWGQGTQVTVSS | low polyreactivity |
| QVQLVESVGGLVQAGGSLRIICAASGSIFTDNAMGWYRQAPGTERELVAAISRSGGNTYYADSVKGRFTISRDNAKNTVYLQMNSLKPEDTAVYYCAARQKGTGNYWGQGTQVTVSS | high polyreactivity |
| QVQLVESGGGLVQAGGSLRLSSAASGRTFYANAMGWYRQAPRKERELVAAISSGGITNYADSVKGRFTISRDNAKNTVYLQMNSLKPEDTAVYYCPYDYWGQGTQVTVSS | low polyreactivity |
| QVQLVESGGGLVQAGGSLRLSCAASGFTFDNYVMGWYRQAPGKERELVAAISKSGTSTYYADSVKGRFTISRDNAKNTVYLQMNSLKPEDTAVYYCAAELPGYYYAYDYWGQGTQVTVSS | high polyreactivity |
| QVQLHESGGGLVQAGGSLRLRCAASGTISYAGPMGWYRQAPGKEREFGAGIGVGSNTNYADSVKGRYTIIRDNAKNTVFLQMNSLKPEDTAVYYCAVGGYAPLGRPYWGQGTQVTVSS | low polyreactivity |
| QVQLVDSGGRLFQAGGSLRLSCAAYGFSFSYYDMGSYRQAPGKERELVAAIFSNGRTYYADSVKGRFTISRDNAKNTVYLQMNSLKPVDTAVYYCAAAYVGYYYSRGFDYWGQGTQVTVSS | high polyreactivity |
| QVQLVESGGGLVQAGGSLRLSCAASGSIFWWYGMGWDRQAPGKERELVADITSGGGTYYADSVKGRFTISRDNAKNTVYLQLNSLKPEDTAVYYCAADVRAYRFDYYFDYWGQGTQVTVSS | low polyreactivity |
| QVQLVESGGGLVQAGGSLRLSCAASGRNYWVYAMGWYREAPGKERELVASIDSGSRTTYADSVKGRFTISRDNAKNTVYLQMISLKQEDTAVYYSATSSYTYSPRVWYRWRRDYWGQGTQVNVSS | high polyreactivity |
| QVQLVESGGGLVQAGGILRLSCAASGRIFYVNAMGWYRQAPGKERELVATIRRGGDTNYADSVKGRFTISRDNAKNTVYLQMNSLNPEDTAVYYCAAKAYQSSYQRYYWGQGTQVTVSS | high polyreactivity |
| QVQLVESGGGLVQAGGSLRLSCAASGRTFYYNAMGWYRQAPGKEREFVAGISYGGTTTYYADSVKGRFTISRDNAKNTVYLQMNSLKPEDTAVYYCAAGYTWRQSWYPFDYWGQGTQVTVSS | high polyreactivity |
| QVQLVESGGGLVQAGGSLRLSCASSGSIFVLNAMGWYRQAPVKESELVAGITYSGGSTYYADSVKGRFTISRDNAKNTVYLQMNSLKPEDTAVYYWSAPVRRYPYPGRFYYWGQGTQVTVSS | low polyreactivity |
| QVQLVESGGGLVQAGGSLRLSCAASGRTLIVNTMGWYRQAPGKEREFVAAIFSGASTYYAYSVKGRFTISRDNAKNTVYLQMNSLKPEDTAVYYCAVRNWHLIKYLHGYTRYGYWGQCTQVTVSS | low polyreactivity |
| QVQLVESGGGLVQAGGSLRLSCAASGRTFSDYAMGWYRQAPGKERELVAAISNGGNTYADSVKGRFTISRDNAKNTVYLQMNSLKPEDTAVYYCNKESGDTARQSIMPSGRGDYWGQGTQVTVSS | low polyreactivity |
| QVQLVESGGGLVQAGGSLRLSCAASGSIFRNYAMGWYRQAPGKERELVAAISRRGGSTYYADSVKGRFTISRDNAKNTVYLQMNSLKPEDTAVYYCKKRWSSKTVQYDYWGQGTQVTVSS | high polyreactivity |
| QVQLVESGGGLVKAGGSLRLSCAASGRIFKYNAMGWYRQAPGKERELVAVITSGGSTYYADSVKGRFTISRDNAKNTVYLQMNSLKPEDTAVYYWGQGTQVTVSS | low polyreactivity |
